Laboratory results published in paper PMC3691878.

Legend:
Assay in all cases: SEC
[1] = biological target: rainbow trout (Oncorhynchus mykiss) RANKL (rainbow trout (Oncorhynchus mykiss))
[2] = biological target: rainbow trout (Oncorhynchus mykiss) BALM (rainbow trout (Oncorhynchus mykiss))
[3] = biological target: rainbow trout (Oncorhynchus mykiss) TRAIL-like (rainbow trout (Oncorhynchus mykiss))

rainbow trout (Oncorhynchus mykiss) RANKL (ligand)
stoichiometry N [1]: 3

rainbow trout (Oncorhynchus mykiss) BALM (ligand)
stoichiometry N [2]: 3

rainbow trout (Oncorhynchus mykiss) TRAIL-like (ligand)
stoichiometry N [3]: 3
